Experimental data as given in patent CN118307667A (INST PATHOGEN BIOLOGY CAMS, dated 2024).

B1: RSFP2B6抗体 (antibody, V domains shown)
VH: QVQLVQSGGALAQPGRSLRLSCTTSGFTFGDYAVNWVRQAPGKGLEWVGIVRTEPYGGTTEYSASVKGRFIISRDDSKGIAYLQMNSLKTEDTGVYYCSQPILNVDVWGQGTTVTVSS
VL: NFMLTQPHSVSESPGKTVTISCTRSSGSFGSDYVQWYQQRPGSAPNTVIYENNQRPSGVPDRFSGSIDSSSNSASLTISGLKTEDEADYYCQSYDDNTPWVFGGGTELTVL
B2: RSFP2D9抗体 (antibody, V domains shown)
VH: EVQLVESGGGLVQPGGSLRLSCAASGFTFSTYEMNWVRQAPGKGLEWISYISVSGATIYYADSVKGRFTISRDNAKSSVYLQMTSLRPEDTAIYYCARDNSLTDYGSGLYWGQGTTVTVSS
VL: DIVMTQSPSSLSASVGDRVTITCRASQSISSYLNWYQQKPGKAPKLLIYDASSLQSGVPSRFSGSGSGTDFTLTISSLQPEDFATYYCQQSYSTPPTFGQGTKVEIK
B3: RSFP2G7抗体 (antibody, V domains shown)
VH: QVQLVQSGTEVRKPGSSVKVSCTASGGTFSIYDIFWVRQAPGQGLEWMGRIIPILDQIDYAQKFEGRVTITADKGRKTVYMELSSLRSDDTAVYYCARPPDTYDNIERWGPGTLVTVSS
VL: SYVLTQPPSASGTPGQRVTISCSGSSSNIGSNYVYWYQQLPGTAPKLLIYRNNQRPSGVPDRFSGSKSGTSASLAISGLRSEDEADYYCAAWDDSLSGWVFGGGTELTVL

Key:
[1] = target: RSV(strain A2)病毒的F蛋白 (RSV (strain A2), UniProt P03420 26-574); assay: cell-based or functional assay
Sequence of RSV(strain A2)病毒的F蛋白 (P03420 26-574): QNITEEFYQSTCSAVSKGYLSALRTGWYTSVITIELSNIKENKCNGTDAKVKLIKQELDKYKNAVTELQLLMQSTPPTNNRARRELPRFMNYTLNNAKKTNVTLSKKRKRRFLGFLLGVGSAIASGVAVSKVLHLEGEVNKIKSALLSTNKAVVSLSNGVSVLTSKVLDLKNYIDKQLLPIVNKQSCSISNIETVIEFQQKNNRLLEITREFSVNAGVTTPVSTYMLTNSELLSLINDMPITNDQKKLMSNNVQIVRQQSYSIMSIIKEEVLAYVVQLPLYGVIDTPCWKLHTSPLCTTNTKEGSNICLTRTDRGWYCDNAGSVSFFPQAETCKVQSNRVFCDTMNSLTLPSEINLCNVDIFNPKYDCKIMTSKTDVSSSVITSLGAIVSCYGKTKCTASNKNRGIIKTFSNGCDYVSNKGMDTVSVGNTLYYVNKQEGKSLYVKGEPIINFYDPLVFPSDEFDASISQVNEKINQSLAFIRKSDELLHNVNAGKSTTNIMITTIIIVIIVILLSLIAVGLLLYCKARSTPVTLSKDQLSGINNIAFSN

[2] = target: RSV-A2 F假病毒上的F蛋白 (参考序列Uniprot:P03420) (RSV A2, UniProt P03420 26-574); assay: cell-based or functional assay
Sequence of RSV-A2 F假病毒上的F蛋白 (参考序列Uniprot:P03420) (P03420 26-574, one chain of several): as the sequence (P03420 26-574) above

Binder | 中和IC50 (RSV strain A2活病毒, focus count, 293T细胞) [1] | 中和IC50 (RSV-A2假病毒, luciferase, 293T细胞) [2]
B1 | 1 µg/mL | 3.89 µg/mL
B2 | 0.054 µg/mL | 0.532 µg/mL
B3 | 0.734 µg/mL | 1.7 µg/mL
